Consider 1 molecule from article PMC4801485.

For the experiment, the target named is cyclophilin from Geobacillus kaustophilus (Geobacillus kaustophilus). Kind of experiment: NMR line shape analysis.

B1: peptide substrate … (peptide)
peptide: GSFGPDLRAGD
Molecule B1 gave a koff of the trans isomer (kBA) of 720 s⁻¹ and a kon of the trans isomer (kAB) of 5.2e+06 M⁻¹ s⁻¹.
